Patent US10130682B2, “Methods of using pigment epithelium derived factor (PEDF) for the treatment and prevention of agent-induced gonadal or uterine toxicity” (Ramot at Tel-Aviv University Ltd., priority 2014, dated 2018)

How the values were obtained:
ICR female mice = assay: Number of ovulated oocytes in DXR-treated mice given rPEDF; format: in vivo, mouse; settings: rPEDF 2 mg/kg SC the day after DXR 6 mg/kg IV; vs DXR alone
Method: FIG. 2A is an illustration depicting the experimental setting: 7 weeks ICR female mice (n=4/group) were treated with DXR or saline (control), at the day after mice were administrated with rPEDF or TRIS (control). On the fourth day of the experiment mice were induced for superovulation with the standard PMSG/hCG protocol [Ben-Aharon et al. Reproductive Biology and Endocrinology: RB&E (2010) 8: 20]. Mice were sacrificed 16-17 hours after hCG administration.
DXR damage was evaluated in 7 weeks ICR female mice following treatment for superovulation with pregnant mares' serum (PMSG, 7 IU) SC on day 0 and human chorionic gonadotropin (hCG, […]) SC on day 2. On day 1, mice were administered with DXR (6 mg/kg) or saline (control) IV. Mice ovaries were retrieved on day 3 (FIG. 1A). The ability of rPEDF to overcome the destructive effect of DXR 7 weeks ICR female mice were treated with DXR (6 mg/kg) or saline (control) IV on day 0, rPEDF (2 mg/kg) or TRIS (control) was administered SC on day 1, followed by induction for superovulation with PMSG (7 IU) SC on day 4 and hCG (7 IU) SC on day 6. […]
cumulus-enclosed oocytes were isolated from the oviductal ampullae into M2 medium (Sigma), 16-18 hrs after hCG administration. Cumulus cells were removed by a brief exposure to 400 IU/ml hyaluronidase (Sigma) and the number of ovulated oocytes was counted under binocular.

LH-15 cells = assay: MTT cell viability assay in LH-15 granulosa cells under H2O2; format: cell-based, rat; settings: rPEDF 1 nM or 5 nM with 100 or 200 μM H2O2, 24 hours
Method: (§1) Rat granulosa cell line LH-15 [Suh et al. J Cell Biol (1992) 119: 439-450] was cultured in hormone-free DMEM-F12 medium, supplemented with penicillin (100 IU/ml; Biological Industries), streptomycin ([…]; Biological Industries) and 10% charcoal-stripped fetal bovine serum (CS-FBS; Invitrogen) (culture medium), as described previously (Breckwoldt et al. 1996, Sasson & Amsterdam 2002). Cells were serum-starved for 16 hours (0.1% CS-FBS) prior to and during recombinant PEDF (rPEDF) stimulation or incubated in 2% CS-FBS during H2O2 stimulation.
Equal amount of LH-15 cells were seeded onto 6-well plates to a final volume of 500 μl. Following treatments, each well was incubated for 30 minutes with 10 μl of MTT [3-(4, 5-Dimethylthiazol-2-yl)-2, 5-diphenyltetrazolium bromide; 5 mg/ml] followed by an additional 2-4 hours incubation period at 37° C. The reaction was terminated by addition of 110 μl HCl (0.07 M in isopropanol) and OD 560 nm was measured by the SpectraMax 190 microplate reader ([…], Eugene, Oreg., USA).

BAX = BAX protein level (western blot) in LH-15 cells under H2O2; format: cell-based, rat; settings: exogenous rPEDF added to H2O2; P<0.05
Method: as §1
(§2) Samples were homogenized in cold lysis buffer (20 mM HEPES, 150 mM NaCl and 0.2% Igepal; sigma) and centrifuged at 12,000 rpm, for 15 min, at 4° C.). Proteins were separated by sodium dodecyl sulfate polyacrylamide gel electrophoresis (SDS-PAGE; 10%; Bio-Rad, Israel). Separated proteins were transferred onto nitrocellulose membranes (Whatman GmbH, Germany) in a mini tank transfer unit (TE 22, Amersham, UK). Approximate molecular masses were determined by comparison with the migration of pre-stained protein standards (Bio-Rad). Blots were blocked for 1 hour in TBST (10 mM Tris-HCl, pH=8.0, 150 mM NaCl, 0.05% Tween 20) containing 5% skim-milk (Alba, N.Y., USA) followed by an over-night incubation at 4° C. with primary antibodies. […] Intensity of the protein bands was quantified by Image J […] (NIH).

SOD-1 = SOD-1 mRNA level (qPCR) in LH-15 cells under H2O2; format: cell-based, rat; settings: rPEDF 1 nM added to H2O2
Method: as §1
(§3) Total RNA was isolated from various tissues (ovaries, eyes) or from granulosa cells, using Trizol reagent (Invitrogen) according to manufacturer's instructions, and quantified with the Nano-Drop spectrophotometer (ND-1000; Thermo Scientific). First-strand cDNA was produced by RT (Maxima™ Reverse transcriptase, Thermo Scientific) from a total of 1 μg RNA, using oligo-dt primers (Thermo Scientific). DNA was amplified using 1 μl RT reaction and 50 pmol gene-specific primers in ReadyMix™ mixture (Sigma). […] Changes in the level of expression of mRNA were detected by SYBR green reagent (SYBR® Green PCR Master Mix, ABI, Carlsbad, Calif., USA) along with 15 ng cDNA and specific primers, on a StepOnePlus Real-Time PCR System (Applied Biosystems, Foster City, Calif., USA).

GPX-1 = GPX-1 mRNA level (qPCR) in LH-15 cells under H2O2; format: cell-based, rat; settings: rPEDF 1 nM added to H2O2
Method: as §1, §3

AKT [1] = assay: AKT phosphorylation (western blot) in serum-starved LH-15 cells; format: cell-based, rat; settings: 1 nM rPEDF, various durations, P<0.05
Method: as §1, §2

[2] = tested on: ovariectomized (OVX) ICR mice; assay: Uterine weight, sub-acute tamoxifen model in ovariectomized mice; format: in vivo, mouse; settings: rPEDF 10 mg/kg SC with tamoxifen 2.5 μg/mouse daily for 7 days
Method: (§4) DXR damage was evaluated in 7 weeks ICR female mice following treatment for superovulation with pregnant mares' serum (PMSG, 7 IU) SC on day 0 and human chorionic gonadotropin (hCG, […]) SC on day 2. On day 1, mice were administered with DXR (6 mg/kg) or saline (control) IV. Mice ovaries were retrieved on day 3 (FIG. 1A). The ability of rPEDF to overcome the destructive effect of DXR 7 weeks ICR female mice were treated with DXR (6 mg/kg) or saline (control) IV on day 0, rPEDF (2 mg/kg) or TRIS (control) was administered SC on day 1, followed by induction for superovulation with PMSG (7 IU) SC on day 4 and hCG (7 IU) SC on day 6. Mice ovaries were retrieved on day 7 (FIG. 2A). […] Mice uteri were excised at day 7. […] Mice treated with tamoxifen alone served as control. […] Mice treated with tamoxifen alone served as control.
(§5) At the end of each experiment, uteri were isolated, excised and weighed.

VEGF [3] = assay: Uterine VEGF protein (western blot), sub-acute tamoxifen model; format: in vivo, mouse; settings: rPEDF 10 mg/kg SC with tamoxifen 2.5 μg/mouse daily for 7 days
Method: as §4
(§6) Samples were homogenized in cold lysis buffer (20 mM HEPES, 150 mM NaCl and 0.2% Igepal; sigma) and centrifuged at 12,000 rpm, for 15 min, at 4° C.). Proteins were separated by sodium dodecyl sulfate polyacrylamide gel electrophoresis (SDS-PAGE; 10%; Bio-Rad, Israel). […] Approximate molecular masses were determined by comparison with the migration of pre-stained protein standards (Bio-Rad). […] Intensity of the protein bands was quantified by Image J […] (NIH).

AKT [4] = assay: Uterine AKT phosphorylation (western blot), sub-acute tamoxifen model; format: in vivo, mouse; settings: 7 days
Method: as §4, §6

JNK = assay: Uterine JNK phosphorylation (western blot), sub-acute tamoxifen model; format: in vivo, mouse; settings: 7 days
Method: as §4, §6

OVX ICR mice = assay: Uterine weight, prolonged tamoxifen model in ovariectomized mice; format: in vivo, mouse
Method: as §4, §5

VEGF [5] = assay: Uterine VEGF protein (western blot), prolonged tamoxifen model; format: in vivo, mouse; settings: rPEDF 2 mg/kg SC once every 3 days from day 8 of one-month tamoxifen treatment
Method: as §4, §6

CD34 = CD34 immunohistochemical staining of uterine blood vessels, prolonged tamoxifen model; format: in vivo, mouse; settings: prolonged treatment
Method: as §4
Paraffin-embedded sections were deparaffinized, microwave heated while being subjected to an antigen retrieval agent (H-3300, Vector Laboratories Inc., Burlingame, Calif., USA), cooled on ice to room temperature, rinsed in PBS, incubated for 1 hour with PBSTg (0.2% Tween and gelatin in PBS), washed with PBS, blocked for 10 minutes in blocking solution (Cell Marque Corporation, Calif., USA) and incubated overnight with anti PNPLA2 or anti-CD34 primary antibodies. […]

ERα [6] = assay: Uterine ERα mRNA (qPCR), sub-acute tamoxifen model; format: in vivo, mouse; settings: sub-acute tamoxifen model
ERα [7] = assay: Uterine ERα mRNA (qPCR), prolonged tamoxifen model; format: in vivo, mouse; settings: prolonged tamoxifen model
ERβ = assay: Uterine ERβ mRNA (qPCR), prolonged tamoxifen model; format: in vivo, mouse; settings: tamoxifen models taken together
[8] = tested on: progesterone receptor (PR); assay: Uterine PR mRNA (qPCR), prolonged tamoxifen model; format: in vivo, mouse; settings: tamoxifen models taken together
Method: DXR damage was evaluated in 7 weeks ICR female mice following treatment for superovulation with pregnant mares' serum (PMSG, 7 IU) SC on day 0 and human chorionic gonadotropin (hCG, […]) SC on day 2. On day 1, mice were administered with DXR (6 mg/kg) or saline (control) IV. Mice ovaries were retrieved on day 3 (FIG. 1A). The ability of rPEDF to overcome the destructive effect of DXR 7 weeks ICR female mice were treated with DXR (6 mg/kg) or saline (control) IV on day 0, rPEDF (2 mg/kg) or TRIS (control) was administered SC on day 1, followed by induction for superovulation with PMSG (7 IU) SC on day 4 and hCG (7 IU) SC on day 6. Mice ovaries were retrieved on day 7 (FIG. 2A). […] Mice uteri were excised at day 7. […] Mice treated with tamoxifen alone served as control. […]
as §3, with “First-strand cDNA was produced by RT (Maxima™ Reverse transcriptase, Thermo Scientific) from a total of 1 μg RNA, using oligo-dt primers (Thermo Scientific).” left out

ERα [9] = assay: Uterine ERα protein (western blot), prolonged tamoxifen model; format: in vivo, mouse
Method: as §4, §6

PR expression in uteri, rPEDF with tamoxifen [8]: without modifying the expression
B1: rPEDF: Human recombinant PEDF (NM_002615.4, SEQ ID NO: 1) expressed in E. coli BL21, purified on Ni-NTA His-Bind resin (protein, UniProt P36955 20-418, looked up)
Pigment epithelium-derived …: QNPASPPEEGSPDPDSTGALVEEEDPFFKVPVNKLAAAVSNFGYDLYRVRSSTSPTTNVLLSPLSVATALSALSLGAEQRTESIIHRALYYDLISSPDIHGTYKELLDTVTAPQKNLKSASRIVFEKKLRIKSSFVAPLEKSYGTRPRVLTGNPRLDLQEINNWVQAQMKGKLARSTKEIPDEISILLLGVAHFKGQWVTKFDSRKTSLEDFYLDEERTVRVPMMSDPKAVLRYGLDSDLSCKIAQLPLTGSMSIIFFLPLKVTQNLTLIEESLTSEFIHDIDRELKTVQAVLTVPKLKLSYEGEVTKSLQEMKLQSLFDSPDFSKITGKPIKLTQVEHRAGFEWNEDGAGTTPSPGLQPAHLTFPLDYHLNQPFIFVLRDTDTGALLFIGKILDPRGP
modifications: His tag
number of ovulated oocytes (ICR female mice): significantly (P<0.05) decreased DXR-induced reduction in number of ovulated oocytes | cells viability (MTT) under H2O2 (LH-15 cells): significantly (P<0.05) decreased H2O2-induced reduction in cells viability | BAX expression under H2O2 (BAX): decreased its expression | SOD-1 mRNA expression under H2O2 (SOD-1): elevated their expression | GPX-1 mRNA expression under H2O2 (GPX-1): elevated their expression | phosphorylation of AKT (AKT [1]): induced prolonged, time-dependent phosphorylation of AKT starting at 5 minutes | uterine weight, tamoxifen+rPEDF vs tamoxifen alone [2]: significant decrease | uterine VEGF protein levels, tamoxifen+rPEDF vs tamoxifen alone (VEGF [3]): significant decrease | uterine AKT phosphorylation, tamoxifen+rPEDF vs tamoxifen alone (AKT [4]): significant decrease in phosphorylation of AKT | uterine JNK phosphorylation, tamoxifen+rPEDF vs tamoxifen alone (JNK): increase in phosphorylation of JNK | effectiveness of rPEDF treatment by timing of administration (OVX ICR mice; preliminary analysis, data not shown, prolonged tamoxifen model): more effective when administered following a short period of initiation with tamoxifen | uterine weights, tamoxifen+rPEDF vs tamoxifen alone (OVX ICR mice; rPEDF 2 mg/kg SC once every 3 days from day 8 of one-month tamoxifen treatment): down-regulated in mice treated with tamoxifen+rPEDF, though not statistically significant (p=0.2) | uterine VEGF protein expression, tamoxifen+rPEDF vs tamoxifen alone (VEGF [5]): significantly decreased | CD34 staining in uteri, tamoxifen+rPEDF vs tamoxifen alone (CD34): decrease in CD34 staining | ERα mRNA levels in uteri, rPEDF with tamoxifen (ERα [6]): able to attenuate the sub-acute tamoxifen-induced reduction in ERα mRNA levels | ERα mRNA levels in uteri, rPEDF with tamoxifen (ERα [7]): able to reverse the prolonged tamoxifen-induced reduction in ERα mRNA levels | ERβ expression in uteri, rPEDF with tamoxifen (ERβ): without modifying the expression | ERα protein expression in uteri, rPEDF with tamoxifen (ERα [9]): down-regulate the expression of ERα protein
